From paper PMC9748371 come the findings set out here.

Values joined by “and” are separate entries in the source; they are usually repeats but may differ in a detail not shown here. Equal values may be shown once.

The target of this assay is EGFR^K642G-mEGFP (UniProt P00533). The experiment in a line: number and brightness.

As for “EGFR^K642G-mEGFP (from UniProt P00533) (receptor)”, the apparent brightness BE was 4.11 and 4.73 and 5.53.
